From patent US20180185467A1 (Harvard, published 2018)

Molecular target: T1, GST-NS3 of YFV (strain 17D) (Yellow Fever virus, strain 17D, UniProt P03314 1485-2107)
T1 construct: domain: NS3; also called YFV NS3; NS3 of Yellow Fever virus
T1 sequence: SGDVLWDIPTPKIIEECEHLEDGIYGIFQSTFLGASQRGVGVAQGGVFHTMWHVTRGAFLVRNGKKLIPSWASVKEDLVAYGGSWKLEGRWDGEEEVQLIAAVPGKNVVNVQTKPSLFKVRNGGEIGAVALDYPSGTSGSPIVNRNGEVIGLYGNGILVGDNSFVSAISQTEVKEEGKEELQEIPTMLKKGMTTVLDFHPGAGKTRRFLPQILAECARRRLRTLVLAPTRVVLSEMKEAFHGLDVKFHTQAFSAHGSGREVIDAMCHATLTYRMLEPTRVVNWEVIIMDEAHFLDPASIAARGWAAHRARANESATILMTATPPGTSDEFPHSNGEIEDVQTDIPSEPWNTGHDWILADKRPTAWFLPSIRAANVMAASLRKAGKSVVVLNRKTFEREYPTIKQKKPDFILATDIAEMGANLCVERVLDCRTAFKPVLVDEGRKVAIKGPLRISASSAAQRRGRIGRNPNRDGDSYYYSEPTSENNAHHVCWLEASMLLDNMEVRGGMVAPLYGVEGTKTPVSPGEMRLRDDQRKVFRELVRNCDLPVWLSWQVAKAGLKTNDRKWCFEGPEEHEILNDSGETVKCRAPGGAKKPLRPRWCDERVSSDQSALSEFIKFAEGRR
Assay: GST pull-down in 293T cells, immunoblot with anti-14-3-3ε

B1: endogenous 14-3-3ε (other)
chain: MDDREDLVYQAKLAEQAERYDEMVESMKKVAGMDVELTVEERNLLSVAYKNVIGARRASWRIISSIEQKEENKGGEDKLKMIREYRQMVETELKLICCDILDVLDKHLIPAANTGESKVFYYKMKGDYHRYLAEFATGNDRKEAAENSLVAYKAASDIAMTELPPTHPIRLGLALNFSVFYYEILNSPDRACRLAKAAFDDAIAELDTLSEESYKDSTLIMQLLRDNLTLWTSDMQGDGEEQNKEALQDVEDENQ
B1: no binding.
